Measured values from patent US20190381169A1, “PHARMACEUTICAL COMBINATIONS FOR IMMUNOTHERAPY” (Technische Universitat Dresden, priority 2014, published 2019).

Target: T1, p75^NTR (Homo sapiens, UniProt P08138)
T1 sequence (P08138 29-427): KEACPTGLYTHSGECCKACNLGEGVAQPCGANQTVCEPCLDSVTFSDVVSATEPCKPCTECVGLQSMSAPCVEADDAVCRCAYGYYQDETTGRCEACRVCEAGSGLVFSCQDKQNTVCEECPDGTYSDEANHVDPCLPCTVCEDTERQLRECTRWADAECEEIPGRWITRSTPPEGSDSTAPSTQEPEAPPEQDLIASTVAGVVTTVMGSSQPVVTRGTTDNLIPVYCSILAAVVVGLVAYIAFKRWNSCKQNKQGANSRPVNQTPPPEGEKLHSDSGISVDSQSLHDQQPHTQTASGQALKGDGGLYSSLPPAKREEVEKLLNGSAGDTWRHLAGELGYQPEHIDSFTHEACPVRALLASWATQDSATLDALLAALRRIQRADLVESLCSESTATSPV
Assay: IL-6 produced by anti-FcεRIα activated human PDC (ELISA)
Format: cell-based
Design: nerve growth factor receptor p75^NTR, which is expressed by human and murine plasmacytoid dendritic cells (PDC); endogenous in cells; host or cells: primary human plasmacytoid dendritic cells (BDCA-4+ selection) from buffy coats or from peripheral blood of allergic donors
Details: anti-FcεRIα-FITC activated PDC with NGF 25 ng/ml vs without NGF; p=0.0066
Protocol: PDC isolated from peripheral blood were taken in RPMI 1640 medium (PAA) with penicillin G (100 U/ml), streptomycin ([…]), L-glutamine (2 mM), 10% heat inactivated FBS and IL-3 (R&D system) at 10 ng/ml. 2×10^5 cells were seeded per well in 200 μl medium in U-shaped bottom 96-well plate and incubated at 5% CO2 and 37° C. For IL-6 generation, mouse anti human FcεRI alpha-FITC (eBioscience) was added at 250 ng/ml to designated wells. p75^NTR blocking peptide TAT-Pep5 (Calbiochem) was employed at 100 nM to designated wells. NGF (R&D Systems) was added at concentration of 25 ng/ml to specified wells. All components were added following the sequence mentioned After 14 hour's stimulation the plate was centrifuged (270 g for 5 minutes). Supernatant was analyzed for IL-6 by ELISA (Bender MedSystems).
IL-6 ELISA was carried out following manufacturer's specifications with few modifications. […] Absorbance of whole plate was read on spectrophotometer at 450 nm as primary wave length and 620 nm as reference wave length. […]
We activated peripheral blood purified PDC by cross linking FcεRIα with anti-FcεRIα-FITC in the presence and absence of NGF at 25 ng/ml in-vitro. Supernatant was harvested after 12 hrs of activation and amount of IL-6 secreted was determined by ELISA. We have analysed 18 buffy coat samples.

NGF: Nerve growth factor, best characterized neurotrophin; natural p75^NTR agonist (R&D Systems)
production of IL-6: significantly increased
